Laboratory results published in article PMC5225424.

Biological target: GmMYB176-YFP (soybean (Glycine max))
Assay: FRET or BRET; FRET by acceptor bleaching, CFP as donor and YFP as acceptor, co-expressed in N. benthamiana leaf epidermal cells; average of multiple samples (n > 15)

## GmCYP1-CFP (from UniProt Q8W171 1-172) (natural protein)
  FRET efficiency: 23.8%
